Assay results as given in US20110281938A1.

Target: tissue factor:FVIIa complex (TF:FVIIa) (UniProt P13726)
Experiment: cell-based or functional assay

tissue factor:FVIIa complex (TF:FVIIa), sequence (P13726 33-295 limits assumed, chain 1 of 2): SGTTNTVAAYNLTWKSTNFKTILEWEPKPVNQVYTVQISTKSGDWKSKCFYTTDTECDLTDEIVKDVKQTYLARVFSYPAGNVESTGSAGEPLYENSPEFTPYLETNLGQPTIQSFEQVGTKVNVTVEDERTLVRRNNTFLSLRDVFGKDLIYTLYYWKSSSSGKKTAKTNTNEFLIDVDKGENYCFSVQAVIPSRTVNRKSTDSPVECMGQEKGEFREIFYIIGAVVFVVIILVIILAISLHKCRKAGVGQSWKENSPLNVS
tissue factor:FVIIa complex (TF:FVIIa), sequence (P08709 61-466 limits assumed, chain 2 of 2, further chain): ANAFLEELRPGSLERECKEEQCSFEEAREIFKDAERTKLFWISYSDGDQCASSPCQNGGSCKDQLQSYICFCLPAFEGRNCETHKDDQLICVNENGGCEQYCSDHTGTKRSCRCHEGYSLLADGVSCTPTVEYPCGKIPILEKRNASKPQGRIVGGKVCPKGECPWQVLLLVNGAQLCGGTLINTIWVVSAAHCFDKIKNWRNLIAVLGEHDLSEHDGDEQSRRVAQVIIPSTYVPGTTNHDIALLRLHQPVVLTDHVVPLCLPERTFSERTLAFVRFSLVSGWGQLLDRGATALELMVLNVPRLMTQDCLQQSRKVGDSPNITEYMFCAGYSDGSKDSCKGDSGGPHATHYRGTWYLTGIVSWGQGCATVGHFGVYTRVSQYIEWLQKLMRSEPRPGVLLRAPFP

Substance: TFPI (source and species not stated; Examples 8, 12 and 45) (from UniProt P10646 29-304)
- rate of FXa generation at 4 minutes, extrinsic tenase (Xase) inhibition assay, 1 nM TFPI: 70%
